The test system of the data set is Escherichia coli TOP10. Kind of data set: shrunken log2 fold change of peptide-encoding DNA abundance (4.5 h post-induction vs induction); higher = less antimicrobial activity (less host growth inhibition). Conditions: time post-induction: 4.5 h; library: site-saturation at positions 5, 18, 19, 20.
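Also: peptides expressed intracellularly from a pBAD plasmid library in pooled LB shake-flask culture, induced with 0.3% L-arabinose, DNA abundance read by NGS, three biological replicates, DESeq2 with apeglm shrinkage.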

Regarding RRIRFRPPRLPRPRPRPMMPPRP, the “shrunken log2 fold change” value is -0.0286.

Consider RRIRYRPPRLPRPRPRPRHYPRP, for which the “shrunken log2 fold change” value was -0.974.

Consider RRIRARPPRLPRPRPRPFMGPRP, for which the “shrunken log2 fold change” value was -0.255.

Consider RRIRIRPPRLPRPRPRPYRHPRP, for which the “shrunken log2 fold change” value was -0.0614.

Turning to RRIRERPPRLPRPRPRPNCHPRP, the “shrunken log2 fold change” value was -0.336.

As for RRIRARPPRLPRPRPRPIWIPRP, the “shrunken log2 fold change” value amounted to 0.123.

Consider RRIRMRPPRLPRPRPRPRSGPRP, for which the “shrunken log2 fold change” value worked out at 0.815.

As to RRIRLRPPRLPRPRPRPMHWPRP, the “shrunken log2 fold change” value was found to be 0.0928.

Turning to RRIRIRPPRLPRPRPRPIEEPRP, the “shrunken log2 fold change” value was -0.0195.

RRIRQRPPRLPRPRPRPLHVPRP: the “shrunken log2 fold change” value was -0.324.

With RRIRQRPPRLPRPRPRPYLFPRP, the “shrunken log2 fold change” value was -0.509.

On to RRIRHRPPRLPRPRPRPTKCPRP, for which the “shrunken log2 fold change” value was -0.0314.

For the sequence RRIRIRPPRLPRPRPRPKPGPRP, the “shrunken log2 fold change” value came out at 0.53.

Turning to RRIRERPPRLPRPRPRPSQIPRP, the “shrunken log2 fold change” value was 0.012.

With RRIRGRPPRLPRPRPRPIVQPRP, the “shrunken log2 fold change” value turned out to be 0.606.

RRIRDRPPRLPRPRPRPTDFPRP: the “shrunken log2 fold change” value was -0.0352.

As to RRIRKRPPRLPRPRPRPVQKPRP, the “shrunken log2 fold change” value is 0.242.

Take RRIRSRPPRLPRPRPRPFDAPRP: the “shrunken log2 fold change” value is -0.279.

As for RRIRTRPPRLPRPRPRPYLYPRP, the “shrunken log2 fold change” value was -0.702.

As for RRIRKRPPRLPRPRPRPRRTPRP, the “shrunken log2 fold change” value amounted to 0.443.

On to RRIRTRPPRLPRPRPRPHIRPRP, for which the “shrunken log2 fold change” value was -0.271.

RRIRLRPPRLPRPRPRPMMDPRP: the “shrunken log2 fold change” value was -0.0843.

In the case of RRIRIRPPRLPRPRPRPMAHPRP, the “shrunken log2 fold change” value was -0.0137.

For RRIRHRPPRLPRPRPRPSIHPRP, the “shrunken log2 fold change” value was -0.924.

In the case of RRIRGRPPRLPRPRPRPLNGPRP, the “shrunken log2 fold change” value was 0.11.

Consider RRIRQRPPRLPRPRPRPDWFPRP, for which the “shrunken log2 fold change” value was -0.104.

For the sequence RRIRIRPPRLPRPRPRPRVGPRP, the “shrunken log2 fold change” value amounted to 0.334.

As for RRIRRRPPRLPRPRPRPYHIPRP, the “shrunken log2 fold change” value is -0.365.

For RRIRARPPRLPRPRPRPEHLPRP, the “shrunken log2 fold change” value stood at 0.108.

As to RRIRLRPPRLPRPRPRPMHYPRP, the “shrunken log2 fold change” value is -0.094.

RRIRVRPPRLPRPRPRPQQDPRP: the “shrunken log2 fold change” value amounted to 0.151.

Take RRIRFRPPRLPRPRPRPQNRPRP: the “shrunken log2 fold change” value was -0.536.

Regarding RRIRYRPPRLPRPRPRPCGPPRP, the “shrunken log2 fold change” value is -0.436.

Take RRIRHRPPRLPRPRPRPGNNPRP: the “shrunken log2 fold change” value was -0.00857.

For RRIRRRPPRLPRPRPRPTNPPRP, the “shrunken log2 fold change” value was determined as 0.122.

For the sequence RRIRYRPPRLPRPRPRPNHPPRP, the “shrunken log2 fold change” value is -0.125.

As for RRIRERPPRLPRPRPRPKPPPRP, the “shrunken log2 fold change” value was determined as 0.242.

Turning to RRIRHRPPRLPRPRPRPKGLPRP, the “shrunken log2 fold change” value came to 0.0749.

Regarding RRIRMRPPRLPRPRPRPAVLPRP, the “shrunken log2 fold change” value worked out at 0.0985.

For RRIRHRPPRLPRPRPRPMVTPRP, the “shrunken log2 fold change” value is -1.08.

RRIRFRPPRLPRPRPRPMWPPRP: the “shrunken log2 fold change” value was -0.0873.

Regarding RRIRKRPPRLPRPRPRPQQIPRP, the “shrunken log2 fold change” value was -0.248.

For the sequence RRIRQRPPRLPRPRPRPWGGPRP, the “shrunken log2 fold change” value came to 0.102.

On to RRIRVRPPRLPRPRPRPFWQPRP, for which the “shrunken log2 fold change” value came to 0.181.

For RRIRKRPPRLPRPRPRPPRKPRP, the “shrunken log2 fold change” value was found to be 0.821.

For RRIRDRPPRLPRPRPRPQWMPRP, the “shrunken log2 fold change” value is -0.176.

With RRIRMRPPRLPRPRPRPFMPPRP, the “shrunken log2 fold change” value was -0.127.

Turning to RRIRRRPPRLPRPRPRPDKVPRP, the “shrunken log2 fold change” value was -0.053.

As for RRIRGRPPRLPRPRPRPNMCPRP, the “shrunken log2 fold change” value was -0.0942.

With RRIRARPPRLPRPRPRPVPAPRP, the “shrunken log2 fold change” value amounted to 0.814.

For the sequence RRIRLRPPRLPRPRPRPIASPRP, the “shrunken log2 fold change” value was -0.0599.

Take RRIRWRPPRLPRPRPRPNWQPRP: the “shrunken log2 fold change” value is -0.0101.

Consider RRIRPRPPRLPRPRPRPSGYPRP, for which the “shrunken log2 fold change” value is -0.204.

RRIRIRPPRLPRPRPRPDCHPRP: the “shrunken log2 fold change” value was -0.154.

Regarding RRIRGRPPRLPRPRPRPPQQPRP, the “shrunken log2 fold change” value is 0.825.

With RRIRDRPPRLPRPRPRPRWGPRP, the “shrunken log2 fold change” value came out at 0.471.

In the case of RRIRTRPPRLPRPRPRPWATPRP, the “shrunken log2 fold change” value was -0.00422.

Regarding RRIRSRPPRLPRPRPRPNTTPRP, the “shrunken log2 fold change” value is -0.194.

Take RRIRYRPPRLPRPRPRPDWFPRP: the “shrunken log2 fold change” value is -0.987.

As to RRIRPRPPRLPRPRPRPWKMPRP, the “shrunken log2 fold change” value was 0.0124.

RRIRMRPPRLPRPRPRPNPCPRP: the “shrunken log2 fold change” value worked out at 0.169.

As for RRIRWRPPRLPRPRPRPYSWPRP, the “shrunken log2 fold change” value is -0.128.

Regarding RRIRTRPPRLPRPRPRPDHYPRP, the “shrunken log2 fold change” value was -0.66.

With RRIRERPPRLPRPRPRPKATPRP, the “shrunken log2 fold change” value was determined as 0.205.

As to RRIRARPPRLPRPRPRPIVNPRP, the “shrunken log2 fold change” value was -0.178.

As to RRIRLRPPRLPRPRPRPAEFPRP, the “shrunken log2 fold change” value was -0.011.

As to RRIRARPPRLPRPRPRPSWSPRP, the “shrunken log2 fold change” value is 0.0204.

Regarding RRIRYRPPRLPRPRPRPMFNPRP, the “shrunken log2 fold change” value is -1.14.

On to RRIRRRPPRLPRPRPRPEWAPRP, for which the “shrunken log2 fold change” value is 0.437.

Take RRIRERPPRLPRPRPRPWSCPRP: the “shrunken log2 fold change” value was -0.11.

Regarding RRIRRRPPRLPRPRPRPVQRPRP, the “shrunken log2 fold change” value is 0.254.

Turning to RRIRSRPPRLPRPRPRPHFLPRP, the “shrunken log2 fold change” value was -0.318.

For RRIRWRPPRLPRPRPRPIWWPRP, the “shrunken log2 fold change” value was found to be 0.314.

Consider RRIRYRPPRLPRPRPRPVYNPRP, for which the “shrunken log2 fold change” value was -0.394.

As to RRIRVRPPRLPRPRPRPHSIPRP, the “shrunken log2 fold change” value is -0.155.

RRIRERPPRLPRPRPRPLKCPRP: the “shrunken log2 fold change” value is -0.11.

With RRIRARPPRLPRPRPRPYLYPRP, the “shrunken log2 fold change” value was -0.312.

For the sequence RRIRKRPPRLPRPRPRPQCFPRP, the “shrunken log2 fold change” value is -0.0263.

As to RRIRGRPPRLPRPRPRPWNQPRP, the “shrunken log2 fold change” value was -0.139.

In the case of RRIRPRPPRLPRPRPRPDDTPRP, the “shrunken log2 fold change” value was -0.085.

Regarding RRIRIRPPRLPRPRPRPETQPRP, the “shrunken log2 fold change” value was 0.0575.

On to RRIRDRPPRLPRPRPRPWAKPRP, for which the “shrunken log2 fold change” value is -0.0135.

As to RRIRDRPPRLPRPRPRPTHQPRP, the “shrunken log2 fold change” value came out at 0.0642.

Take RRIRTRPPRLPRPRPRPYGEPRP: the “shrunken log2 fold change” value is -0.074.

In the case of RRIRWRPPRLPRPRPRPQHWPRP, the “shrunken log2 fold change” value is 0.0364.

As for RRIRLRPPRLPRPRPRPFDGPRP, the “shrunken log2 fold change” value was -0.00197.

With RRIRDRPPRLPRPRPRPRARPRP, the “shrunken log2 fold change” value was 0.601.

On to RRIRARPPRLPRPRPRPPDEPRP, for which the “shrunken log2 fold change” value stood at 0.338.

Take RRIRNRPPRLPRPRPRPIMSPRP: the “shrunken log2 fold change” value was -0.103.

On to RRIRQRPPRLPRPRPRPDIMPRP, for which the “shrunken log2 fold change” value was -0.136.

For RRIRTRPPRLPRPRPRPWFGPRP, the “shrunken log2 fold change” value worked out at 0.0864.

On to RRIRCRPPRLPRPRPRPPWIPRP, for which the “shrunken log2 fold change” value was -0.209.

For RRIRLRPPRLPRPRPRPAKFPRP, the “shrunken log2 fold change” value stood at 0.0249.

Turning to RRIRTRPPRLPRPRPRPQTQPRP, the “shrunken log2 fold change” value was -0.0967.

As to RRIRRRPPRLPRPRPRPISCPRP, the “shrunken log2 fold change” value was found to be 0.00341.

RRIRKRPPRLPRPRPRPEMKPRP: the “shrunken log2 fold change” value worked out at 0.682.

As to RRIRKRPPRLPRPRPRPMKNPRP, the “shrunken log2 fold change” value amounted to 0.212.

As for RRIRQRPPRLPRPRPRPHGCPRP, the “shrunken log2 fold change” value was 0.0414.

RRIRTRPPRLPRPRPRPAHTPRP: the “shrunken log2 fold change” value came to 0.09.

Regarding RRIRIRPPRLPRPRPRPPGIPRP, the “shrunken log2 fold change” value was -0.147.

RRIRTRPPRLPRPRPRPQQKPRP: the “shrunken log2 fold change” value is -0.0118.

As to RRIRPRPPRLPRPRPRPYESPRP, the “shrunken log2 fold change” value is -0.186.

Turning to RRIRRRPPRLPRPRPRPTMWPRP, the “shrunken log2 fold change” value came to 0.364.

On to RRIRLRPPRLPRPRPRPWNSPRP, for which the “shrunken log2 fold change” value was -0.018.

For the sequence RRIRDRPPRLPRPRPRPRTDPRP, the “shrunken log2 fold change” value was 0.0936.

For RRIRFRPPRLPRPRPRPQIWPRP, the “shrunken log2 fold change” value was -0.0457.

Take RRIRQRPPRLPRPRPRPVALPRP: the “shrunken log2 fold change” value is -0.0318.

In the case of RRIRTRPPRLPRPRPRPDFGPRP, the “shrunken log2 fold change” value was -0.0474.

As for RRIRWRPPRLPRPRPRPPAGPRP, the “shrunken log2 fold change” value was 0.83.

For RRIRWRPPRLPRPRPRPVLKPRP, the “shrunken log2 fold change” value was 0.637.

Consider RRIRPRPPRLPRPRPRPGRLPRP, for which the “shrunken log2 fold change” value was -0.0937.

Take RRIRIRPPRLPRPRPRPREKPRP: the “shrunken log2 fold change” value was 0.111.

Take RRIRHRPPRLPRPRPRPCIWPRP: the “shrunken log2 fold change” value was -0.121.

With RRIRRRPPRLPRPRPRPVWPPRP, the “shrunken log2 fold change” value was determined as 0.36.

In the case of RRIRIRPPRLPRPRPRPYFTPRP, the “shrunken log2 fold change” value was -0.702.

As to RRIRSRPPRLPRPRPRPAGYPRP, the “shrunken log2 fold change” value was 0.0337.

Take RRIRFRPPRLPRPRPRPMTAPRP: the “shrunken log2 fold change” value is -0.00148.

Turning to RRIRMRPPRLPRPRPRPPQRPRP, the “shrunken log2 fold change” value was found to be 1.09.

On to RRIRKRPPRLPRPRPRPSEFPRP, for which the “shrunken log2 fold change” value worked out at 0.154.

On to RRIRDRPPRLPRPRPRPNAIPRP, for which the “shrunken log2 fold change” value is 0.13.

Turning to RRIRPRPPRLPRPRPRPKTEPRP, the “shrunken log2 fold change” value was -0.217.

RRIRWRPPRLPRPRPRPVLWPRP: the “shrunken log2 fold change” value came to 0.809.

As to RRIRCRPPRLPRPRPRPMTQPRP, the “shrunken log2 fold change” value is -0.188.

For RRIRLRPPRLPRPRPRPVTSPRP, the “shrunken log2 fold change” value was -0.0743.

With RRIRERPPRLPRPRPRPCFSPRP, the “shrunken log2 fold change” value is -0.0538.

(Values after the supplement of paper PMC9112550, “Optimization of the antimicrobial peptide Bac7 by deep mutational scanning” (BMC Biology, 2022).)
